This series deals with PABP (PABPC1) (Homo sapiens, UniProt P11940 1-383). Briefly: fluorescence polarization/anisotropy; text gives nM; Fig. 2d legend prints μM; FP: 50 mM HEPES, 5 mM EDTA, 250 mM KCl, 10 mM DTT, 0.5 mg/mL BSA, 0.05% Tween-20, 0.1 mg/mL yeast RNA, 0.5 nM Cy3-RNA (pH and temperature not stated). EMSA: 10. Conditions: protein: recombinant.
Chain of PABP (PABPC1) (P11940 1-383): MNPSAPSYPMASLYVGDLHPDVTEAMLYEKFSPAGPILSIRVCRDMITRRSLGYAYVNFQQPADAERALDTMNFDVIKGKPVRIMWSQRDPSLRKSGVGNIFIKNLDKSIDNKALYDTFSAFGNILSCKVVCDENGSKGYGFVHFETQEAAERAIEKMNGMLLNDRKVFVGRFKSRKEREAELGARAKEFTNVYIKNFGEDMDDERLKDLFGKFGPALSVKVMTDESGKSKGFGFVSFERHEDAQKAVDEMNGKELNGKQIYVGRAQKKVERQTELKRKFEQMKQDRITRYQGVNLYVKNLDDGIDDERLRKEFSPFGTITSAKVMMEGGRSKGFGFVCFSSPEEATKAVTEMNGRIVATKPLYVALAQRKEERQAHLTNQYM

Turning to AAAAAAAAAAAA (ssRNA) [unmodified 12-base Poly(A) RNA], the Kd (usually the equilibrium constant for the complex coming apart) was 261 ± 54 nM.

B1: Poly(A) SPOT-ON (XNA)
strand: AAAAAAAAAAAA
modifications: 2'-O-methyl throughout; phosphorothioate at the 5' and 3' terminal linkages (A*AAAAAAAAAA*A)
As for B1, the Kd is 301 ± 41 nM.

The values are drawn from publication PMC5750225, “Inhibition of Poly(A)-binding protein with a synthetic RNA mimic reduces pain sensitization in mice”.
